Several values for one entry are separate records, joined by “and”; a condition that tells them apart may be missing. Equal entries are not always repeated.
Conditions: Escherichia coli (strain K12), pH 7.4, Thermal, DSC, Pipes 50 mM, reversible: yes (80%), whole UniProt chain shown

B1: Guanylate kinase wild type, P60546 (protein)
chain: MAQGTLYIVSAPSGAGKSSLIQALLKTQPLYDTQVSVSHTTRQPRPGEVHGEHYFFVNHDEFKEMISRDAFLEHAEVFGNYYGTSREAIEQVLATGVDVFLDIDWQGAQQIRQKMPHARSIFILPPSKIELDRRLRGRGQDSEEVIAKRMAQAVAEMSHYAEYDYLIVNDDFDTALTDLKTIIRAERLRMSRQKQRHDALISKLLAD
NaCl 250 mM, transition: 3
  unfolding enthalpy (calorimetric): 36.8 kcal/mol and 70.3 kcal/mol
transition: 3
  unfolding enthalpy (calorimetric): 38.9 kcal/mol and 67.5 kcal/mol
transition: 4
  unfolding enthalpy (calorimetric): 27.3 kcal/mol and 47.8 kcal/mol and 30.8 kcal/mol
